Results on 10 molecules are retold here after patent US20260053882A1 (TRUSTEES OF PRINCETON UNIVERSITY, published 2026).

To fix the notation:
T1: Epithelial Cell Adhesion Molecule (EpCAM), endogenous on human cell lines (human, UniProt P16422 24-314)
T1 construct: whole, on cells
T1 sequence (looked up): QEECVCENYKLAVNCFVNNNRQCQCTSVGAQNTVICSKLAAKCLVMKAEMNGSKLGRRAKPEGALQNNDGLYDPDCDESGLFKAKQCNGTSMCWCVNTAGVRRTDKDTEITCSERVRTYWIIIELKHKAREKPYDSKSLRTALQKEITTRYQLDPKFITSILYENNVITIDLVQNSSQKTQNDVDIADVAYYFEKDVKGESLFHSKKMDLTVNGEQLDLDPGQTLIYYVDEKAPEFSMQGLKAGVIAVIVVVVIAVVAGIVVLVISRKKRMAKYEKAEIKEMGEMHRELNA

B1: reconstituted SpyCatcher003 spliced from SpyN-αHER2 and SpyC-αEGFR (FLAG-αHER2-SpyCatcher003-αEGFR-Myc, NrdJ-1 splice product) (other)
chain: DYKDDDDKDLGKKLLEAARAGQDDEVRILMANGADVNAKDEYGLTPLYLATAHGHLEIVEVLLKNGADVNAVDAIGFTPLHLAAFIGHLEIAEVLLKHGADVNAQDKFGKTAFDISIGNGNEDLAEILQKLNGSTSGSVTTLSGLSGEQGPSGDMTTEEDSATHIKFSKRDEDGRELAGATMELRDSSGKTISTWISDGHVKDFYLYPGKYSFVETAAPDGYEVATPIEFTVNEDGQVTVDGEATEGDAHTGSTSGSDLGKKLLEAARAGQDDEVRILMANGADVNADDTWGWTPLHLAAYQGHLEIVEVLLKNGADVNAYDYIGWTPLHLAADGHLEIVEVLLKNGADVNASDYIGDTPLHLAAHNGHLEIVEVLLKHGADVNAQDKFGKTAFDISIDNGNEDLAEILQKLNEQKLISEEDL
notes: On cells it is held by its two DARPins on HER2 and EGFR; also called reconstituted SpyCather003; spliced SpyCatcher003
B2: reconstituted SpyCatcher003 with K31E, spliced from SpyN-αHER2(K31E) and SpyC-αEGFR (other)
chain: B1 chain with K169E
notes: K31 is counted on SpyCatcher003; ranges derived as for m26; also called defective POI; defective output
B3: αEpCAM-AF594 DARPin (αEpCAM-HA-Cys Alexa Fluor 594 conjugate) (designed binder)
chain: DLGKKLLEAARAGQDDEVRILVANGADVNAYFGTTPLHLAAAHGRLEIVEVLLKNGADVNAQDVWGITPLHLAAYNGHLEIVEVLLKYGADVNAHDTRGWTPLHLAAINGHLEIVEVLLKNVADVNAQDRSGKTPFDLAIDNGNEDIAEVLQKAAKLNGGYPYDVPDYAGGSC
modifications: Alexa Fluor 594 C5 maleimide on the C-terminal Cys
notes: His6-SUMO tag cut off with Ulp1; range derived by counting; also called targeting DARPin labeled with AF594
B4: αHER2-SpyN-eNrdJ-1N^cage Cys1-alkylated (other)
chain: DYKDDDDKDLGKKLLEAARAGQDDEVRILMANGADVNAKDEYGLTPLYLATAHGHLEIVEVLLKNGADVNAVDAIGFTPLHLAAFIGHLEIAEVLLKHGADVNAQDKFGKTAFDISIGNGNEDLAEILQKLNGSTSGSVTTLSGLSGEQGPSGDMTTEEDSATHIKFSKRDEDGRELAGATMELRDSSGKTISTWISDGHVKDFYLYPGKYCLVGSSEIITRNYGKTTIKEVVEIFDNDKNIQVLAFNTHTDNIEWAPIKAAQLTRPNAELVELEIDTLHGVKTIRVTPDHPVYTKNRGYVRADELTDDDELVVAIENLYGDEVNGYFQGMEAETYIGKLKSRAIVSNEDTYDIQTSTHNFFAND
modifications: Cys1 of eNrdJ-1N^cage alkylated with iodoacetamide (residue 331 of the printed SEQ ID NO 26)
notes: His6-SUMO tag cut off with Ulp1; range derived by counting; also called SpyN-αHER2 with Cys1-alkylated NrdJ-1N^cage
B5: SpyTag003-AF594 (His6-SpyTag003-SUMO-Cys Alexa Fluor 594 conjugate) (other)
chain: MGSSHHHHHHSSGLVPRGSRGVPHIVMVDAYKRYKGSGESGMSDSEVNQEAKPEVKPEVKPETHINLKVSDGSSEIFFKIKKTTPLRRLMEAFAKRQGKEMDSLRFLYDGIRIQADQTPEDLDMEDNDIIEAHREQIGC
modifications: Alexa Fluor 594 C5 maleimide on the C-terminal Cys
notes: the SUMO is internal (His6-SpyTag003-SUMO-Cys) and is not cut off; also called fluorescently labeled probe
B6: SpyTag003-DNP (His6-SpyTag003-SUMO-Cys dinitrophenol conjugate) (other)
chain: B5 chain
modifications: 2,4-dinitrophenyl-maleimide on the C-terminal Cys
notes: Conjugate of SpyTag003-Cys; also called SpyTag003 2,4-dinitrolphenol conjugate; dinitrophenyl probe
B7: SpyTag003-biotin (His6-SpyTag003-SUMO-Cys biotin conjugate) (other)
chain: B5 chain
modifications: biotin maleimide on the C-terminal Cys
notes: Conjugate of SpyTag003-Cys; also called biotinylated probe
B8: SpyTag003^D117A-AF594 (His6-SpyTag003^D117A-SUMO-Cys Alexa Fluor 594 conjugate) (other)
chain: B5 chain with D29A
modifications: Alexa Fluor 594 C5 maleimide on the C-terminal Cys
B9: SpyTag003-APEX2 (His6-SpyTag003-HA-APEX2) (other)
chain: MGSSHHHHHHSSGLVPRGSRGVPHIVMVDAYKRYKGSGESGYPYDVPDYASSGGKSYPTVSADYQDAVEKAKKKLRGFIAEKRCAPLMLRLAFHSAGTFDKGTKTGGPFGTIKHPAELAHSANNGLDIAVRLLEPLKAEFPILSYADFYQLAGVVAVEVTGGPKVPFHPGREDKPEPPPEGRLPDPTKGSDHLRDVFGKAMGLTDQDIVALSGGHTIGAAHKERSGFEGPWTSNPLIFDNSYFTELLSGEKEGLLQLPSDKALLSDPVFRPLVDKYAADEDAFFADYAEAHQKLSELGFADA
notes: Not SUMO-tagged
B10: αHER2-AF594 DARPin (αHER2-HA-Cys Alexa Fluor 594 conjugate) (designed binder)
chain: DLGKKLLEAARAGQDDEVRILMANGADVNAKDEYGLTPLYLATAHGHLEIVEVLLKNGADVNAVDAIGFTPLHLAAFIGHLEIAEVLLKHGADVNAQDKFGKTAFDISIGNGNEDLAEILQKLNGGYPYDVPDYAGGSC
modifications: Alexa Fluor 594 C5 maleimide on the C-terminal Cys
notes: as for B3

Where a chain is given by its changes, count along the chain named. Names and notes keep the numbering of the source.

Experiment [1] has as its target B5. Nature of the experiment: in vitro splicing of the C76V FKBP/FRB precursors with rapamycin, reaction with 2 µM SpyTag003-AF594, western blot.
Procedure: (§1) Samples were run on an SDS-PAGE gel. […] The membrane was washed 3×5 min with TBS-T and incubated with primary antibodies at specified dilution (Table 4) on an orbital shaker for 1 hr at room temperature or alternatively overnight at 4° C. After washing 3×5 min with TBS-T, the IRDye secondary antibody or alternatively IRDye Streptavidin were applied for 30 min to 1 hour at room temperature, before imaging on a Li-Cor Odyssey imager (Li-Cor).
Splicing was initiated either by addition of 8 μL, 50 µM rapamycin (DMSO) or 1 μL, 40×TEV protease. Buffered solution was added to compensate for volume differences when reaction components were omitted in control reactions. The reaction was left for 24 hr at 37° C. before further analysis by SDS-PAGE followed by western blotting.
For experiment [2], the target named is B5. Nature of the experiment: flow cytometry, K562 HER2+/EGFR+ cells, SpyN-αHER2(K31E) + SpyC-αEGFR.
The target in experiment [3] is T1, Epithelial Cell Adhesion Molecule …. The experiment can be described thus: flow cytometry, 100 nM DARPin-AF594 on human cancer cell lines.
Experiment [4] concerns the target B5. Nature of the experiment: confocal microscopy, K562 HER2+/EGFR+ cells; splicing-dead SpyN-αHER2 together with SpyC-αEGFR.
The target in experiment [5] is B1. The experiment can be described thus: confocal microscopy, K562 HER2+/EGFR+ cells treated with SpyN-αHER2 and SpyC-αEGFR (eNrdJ-1^cage), 100 nM probe.
Procedure: Confocal microscopy of K562 cell lines treated with SMART-SpyCatcher for [HER2 AND EGFR] operation. K562^{HER2+/EGFR+} cell line were assayed for SMART-SpyCatcher activation and analyzed by confocal microscopy.
(§2) Suspension cell lines: The K562 cell lines were cultured were individually. For an experiment, the culture of interest was spun down and counted to estimate the cell concentration. Then approximately 200,000 cells were isolated, washed twice with DPBS, 1% w/v BSA, 2 mM CaCl₂) and suspended in 0.4 mL of the buffer. To the sample was added the specified SMART-SpyCatcher at the specified concentration by adding each individual component (SpyN and SpyC) from stock solutions. The sample was incubated for 2 hr, 37° C., 5% CO₂ to allow for actuation. The sample was then cooled at room temperature for 10 min before adding the specified SpyTag003 conjugate at 100 nM. […] The cells were then washed twice with cold DPBS, 1% w/v BSA, 2 mM CaCl₂) and incubated on ice until further analysis by confocal microscopy or flow-cytometry. Samples subjected to SDS-PAGE/western blotting were washed twice with DPBS alone to remove excess BSA.
The target in experiment [6] is B1. Nature of the experiment: confocal microscopy, K562 HER2+/EGFR+ cells treated with SMART-SpyCatcher, 100 nM SpyTag003-DNP.
Procedure: The anti-DNP antibody was detected using a goat anti-rabbit IgG AF594 conjugate.
Suspension cell lines: The K562 cell lines were cultured were individually. For an experiment, the culture of interest was spun down and counted to estimate the cell concentration. Then approximately 200,000 cells were isolated, washed twice with DPBS, 1% w/v BSA, 2 mM CaCl₂) and suspended in 0.4 mL of the buffer. To the sample was added the specified SMART-SpyCatcher at the specified concentration by adding each individual component (SpyN and SpyC) from stock solutions. The sample was incubated for 2 hr, 37° C., 5% CO₂ to allow for actuation. The sample was then cooled at room temperature for 10 min before adding the specified SpyTag003 conjugate at 100 nM. […] The cells were then washed twice with cold DPBS, 1% w/v BSA, 2 mM CaCl₂) and incubated on ice until further analysis by confocal microscopy or flow-cytometry.
In experiment [7] the target is B1. Nature of the experiment: western blot of K562 HER2+/EGFR+ cells treated with SMART-SpyCatcher.
Procedure: as §1, §2
In experiment [8] the target is B1. Nature of the experiment: labeled mutant probe on K562 HER2+/EGFR+ cells treated with SMART-SpyCatcher, washed, AF594 signal.
The target in experiment [9] is B1. The experiment can be described thus: western blot of K562 HER2+/EGFR+ cells treated with SMART-SpyCatcher and 300 nM SpyTag003-APEX2.
Procedure: To the sample was added the specified SMART-SpyCatcher at the specified concentration by adding each individual component (SpyN and SpyC) from stock solutions. The sample was incubated for 2 hr, 37° C., 5% CO₂ to allow for actuation. The sample was then cooled at room temperature for 10 min before adding the specified SpyTag003 conjugate at 100 nM. […] The cells were then washed twice with cold DPBS, 1% w/v BSA, 2 mM CaCl₂) and incubated on ice until further analysis by confocal microscopy or flow-cytometry. Samples subjected to SDS-PAGE/western blotting were washed twice with DPBS alone to remove excess BSA. […] Adherent cell lines: The various adherent cell lines were cultured individually. Plated cells were lifted using trypsin, washed with complete medium and counted to estimate the cell concentration. Then 200,000 cells were seeded in a 24 well plate format and allowed 24 hr recovery and attachment in complete media. The assay protocol for SMART-SpyCatcher actuation and SpyTag003 recruitment follows that outlined above for the suspension cell lines. Post-treatment, the adherent cells were washed twice with DPBS, 1% w/v BSA, 2 mM CaCl₂) and then lifted with a non-enzymatic solution of DPBS, 1% w/v BSA, 50 mM EDTA and incubated on ice before analysis by flow-cytometry. For SDS-PAGE/western blotting cells were lifted as described and then washed with DPBS alone to remove excess BSA. […]
Experiment [10] deals with T2, HER2, endogenous on human cell lines (human, UniProt P04626 23-1255).
T2 construct: whole, on cells
Nature of the experiment: flow cytometry, 100 nM DARPin-AF594 on human cancer cell lines.

Turning to B1, the binding result in [1] was “binds”. Turning to B2, the binding result in experiment [2] is given as “no binding (tested: 100 nM)”.

For the molecule B3, the binding result in [3] is reported as “binds”.

Regarding B4, the binding result in [4] is “no binding (tested: 100 nM)”.

Take B5: in [5], the binding result is recorded as “binds”. For B6, the binding result in experiment [6] is listed as “binds”. On to B7, for which the binding result in [7] is given as “binds”. Turning to B8, the binding result in experiment [8] is given as “no binding (tested: 100 nM)”. With B9, the binding result in experiment [9] was “binds”. Take B10: the binding result in experiment [10] is on record as “binds”.
